Experimental data: patent US6365366

Experiments:
Design in all cases: key to the marks not given beside the values
[1] = test system: T1, AKDVDQGSFCTSLVGTLQY peptide (SEQ ID NO:13)
T1 sequence: AKDVDQGSFCTSLVGTLQY

[2] = test system: T2, AKDVDQGSLCTSLVGTLQY peptide (SEQ ID NO:12)
T2 sequence: AKDVDQGSLCTSLVGTLQY

[3] = test system: T3, AKDVDQGSVCTSFVGTLQY peptide (SEQ ID NO:11)
T3 sequence: AKDVDQGSVCTSFVGTLQY

[4] = test system: T4, DQGSFCTSL peptide (SEQ ID NO:7)
T4 sequence: DQGSFCTSL

[5] = test system: T5, GGSFCTSL peptide (SEQ ID NO:6)
T5 sequence: GGSFCTSL

[6] = test system: T6, GGSLCTSF peptide (SEQ ID NO:4)
T6 sequence: GGSLCTSF

[7] = test system: T7, GGSLMTSF peptide (SEQ ID NO:5)
T7 sequence: GGSLMTSF

[8] = test system: T8, VDQGSIAASFVGT peptide (SEQ ID NO:10)
T8 sequence: VDQGSIAASFVGT

[9] = test system: T9, VDQGSLAASFVGT peptide (SEQ ID NO:8)
T9 sequence: VDQGSLAASFVGT

[10] = test system: T10, VDQGSMAASLVGT peptide (SEQ ID NO:9)
T10 sequence: VDQGSMAASLVGT

Measured: T2K substrate specificity

T2K kinase
+++: [1] | [2] | [3] | [4] | [5] | [6] | [7] | [8] | [9] | [10]
